The nature of this series: self-splicing fitness, log relative to wild type (ln ratio); higher = more splicing; Tetrahymena group I intron in knt gene, E. coli kanamycin selection, DiMSum; sequences stand for … in CUCUCU…GGAGGGAAAAGUUAUCAGGCAUGCACCUGGUAGCUAGUCUUUAAACCAAUAGAUUGCAUCGGUUUAAAAGGCAAGACCGUCAAAUUGCGGGAAAGGGGUCAACAGCCGUUCAGUACCAAGUCUCAGGGGAAACUUUGAGAUGGCCUUGCAAAGGGUAUGGUAAUAAGCUGACGGACAUGGUCCUAACCACGCAGCCAAGUCCUAAGUCAACAGAUCUUCUGUUGAUAUGGAUGCAGUUCACAGACUAAAUGUCGGUCGGGGAAGAUGUAUUCUUCUCAUAAGAUAUAGUCGGACCUCUCCUUAAUGGGAGCUAGCGGAUGAAGUGAUGCAACACUGGAGCCGCUGGGAACUAAUUUGUAUGCGAAAGUAUAUUGAUUAGUUUUGGAGUACUCGUGGUCG
The gist of the method: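 Colonies from six replicate transformations of E. coli BL21(DE3) were pooled and amplicon-sequenced on an Illumina HiSeq 2500. The library placed an intron with all eight P1ex-region nucleotides randomised inside the knt kanamycin-resistance gene on pET-22b(+), and cells grew overnight at 37°C or 30°C on LB agar with or without 25 μg/mL kanamycin (plus 100 μg/mL carbenicillin, 50 μM IPTG, 0.2% rhamnose). Fitness is the DiMSum error-weighted combination of wild-type-normalised replicate fold changes, kanamycin versus none.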

± gives the uncertainty stated by the source.

In the case of UGACAGCAAUAUUACGGCAC, the “self-splicing fitness (ln)” value reads like this: (30 °C) -3.55 ± 0.19; (37 °C) -2.23 ± 0.19.
The like results for CAGUAGCAAUAUUACGAGUG were, in that order, -0.988 ± 0.052 and -0.603 ± 0.076.
The like results for AUAGAGCAAUAUUACGGCGA were, in that order, -0.73 ± 0.059 and 0.0474 ± 0.076.
The like results for GUUAAGCAAUAUUACGUCGA were, in that order, -1.79 ± 0.11 and -1.02 ± 0.11.
In the case of CGUGAGCAAUAUUACGGUUA, the “self-splicing fitness (ln)” value was -3.15 ± 0.33 (30 °C) and -2.98 ± 0.29 (37 °C).
Turning to CUGGAGCAAUAUUACGGCUC, under “30 °C”, the “self-splicing fitness (ln)” value was -2.58 ± 0.3.
Still for that read-out and setting: the same measure for CGAGAGCAAUAUUACGUAUA: -4.06 ± 0.36.
For CUCGAGCAAUAUUACGGCCU, the “self-splicing fitness (ln)” value (37 °C) was -1.37 ± 0.36.
Regarding UUCCAGCAAUAUUACGAGCU, the “self-splicing fitness (ln)” value runs as follows: (30 °C) -3.64 ± 0.23; (37 °C) -2.71 ± 0.27.
The like results for UGCGAGCAAUAUUACGUGUA were, in that order, -2.83 ± 0.11 and -1.01 ± 0.1.
The like results for ACUGAGCAAUAUUACGGCGU were, in that order, -1.07 ± 0.079 and 0.0319 ± 0.097.
Consider UUCGAGCAAUAUUACGCAGU, for which the “self-splicing fitness (ln)” value is, setting by setting: (30 °C) -2.87 ± 0.36; (37 °C) -1.61 ± 0.33.
The like results for ACAAAGCAAUAUUACGUCGA were, in that order, -1.98 ± 0.092 and -1.02 ± 0.094.
For the sequence CGAUAGCAAUAUUACGAUGC, the “self-splicing fitness (ln)” value was -4.1 ± 0.21 (30 °C) and -1.81 ± 0.15 (37 °C).
As for GACUAGCAAUAUUACGGCCC, the “self-splicing fitness (ln)” value (37 °C) is 0.226 ± 0.4.
Same read-out and setting: the same measure for CGGAAGCAAUAUUACGUCGU: -2.21 ± 0.36.
With AUAUAGCAAUAUUACGCCGU, the “self-splicing fitness (ln)” value (30 °C) was -0.99 ± 0.24 and the “self-splicing fitness (ln)” value (37 °C) was -0.413 ± 0.19.
In the same order, the values of UAAUAGCAAUAUUACGGUGA are -3.61 ± 0.3 and -2.39 ± 0.26.
Turning to GAAUAGCAAUAUUACGCCAU, for the setting “37 °C”, the “self-splicing fitness (ln)” value was -1.49 ± 0.36.
Regarding ACGAAGCAAUAUUACGGGAC, the “self-splicing fitness (ln)” value is, setting by setting: (30 °C) -4.36 ± 0.24; (37 °C) -2.68 ± 0.18.
Regarding UAUCAGCAAUAUUACGCUGA, under “37 °C”, the “self-splicing fitness (ln)” value is -2.31 ± 0.37.
In the case of CGGUAGCAAUAUUACGCAGU, the “self-splicing fitness (ln)” value (30 °C) was -4.22 ± 0.22 and the “self-splicing fitness (ln)” value (37 °C) is -2.63 ± 0.16.
In the same order, the values of UAGUAGCAAUAUUACGCGAG are -1.57 ± 0.12 and -0.941 ± 0.17.
The like results for ACUAAGCAAUAUUACGUCAU were, in that order, -3.64 ± 0.16 and -2.28 ± 0.15.
On to GGUAAGCAAUAUUACGCAGA, for which the “self-splicing fitness (ln)” value (37 °C) was -1.84 ± 0.47.
For CACCAGCAAUAUUACGAGGA, the “self-splicing fitness (ln)” value reads like this: (30 °C) -2.74 ± 0.14; (37 °C) -1.91 ± 0.13.
With GUUGAGCAAUAUUACGUGAU, the “self-splicing fitness (ln)” value was -2.14 ± 0.19 (30 °C) and -1.6 ± 0.27 (37 °C).
For UCGAAGCAAUAUUACGCCAG, the “self-splicing fitness (ln)” value (30 °C) was -2.24 ± 0.25 and the “self-splicing fitness (ln)” value (37 °C) is -2.09 ± 0.42.
In the same order, the values of UAGAAGCAAUAUUACGCAAG are -2.33 ± 0.2 and -0.64 ± 0.17.
The like results for GAAUAGCAAUAUUACGGGAU were, in that order, -2.06 ± 0.13 and -2.06 ± 0.16.
On to UGGUAGCAAUAUUACGACGC, for which the “self-splicing fitness (ln)” value (37 °C) is 1.38 ± 0.5.
As to GAGAAGCAAUAUUACGGUAU, the “self-splicing fitness (ln)” value (30 °C) was -1.67 ± 0.096 and the “self-splicing fitness (ln)” value (37 °C) is -1.79 ± 0.17.
The like results for UCACAGCAAUAUUACGAUCC were, in that order, -3.08 ± 0.2 and -2.03 ± 0.22.
In the same order, the values of GCACAGCAAUAUUACGUGUC are -2.98 ± 0.12 and -2.05 ± 0.17.
Take GCCUAGCAAUAUUACGACCU: the “self-splicing fitness (ln)” value (30 °C) is -1.35 ± 0.23 and the “self-splicing fitness (ln)” value (37 °C) is -1.02 ± 0.27.
Take GGGUAGCAAUAUUACGUGGG: the “self-splicing fitness (ln)” value is -4.13 ± 0.32 (30 °C) and -2.29 ± 0.19 (37 °C).
In the case of GUUUAGCAAUAUUACGUUCC, the “self-splicing fitness (ln)” value (30 °C) is -0.783 ± 0.26.
